This assay deals with SNARE complex containing syntaxin-1A(2-253), synaptobrevin-2(29-93), SNAP-25(11-82) and SNAP-25(141-203) (rat | human, UniProt P32851;P63045;P60880). Nature of the assay: SEC. In general terms: Size exclusion chromatography separates by hydrodynamic size, large species first.
Sequence of SNARE complex containing syntaxin-1A(2-253), synaptobrevin-2(29-93), SNAP-25(11-82) and SNAP-25(141-203) (P32851 2-253, chain 1 of 4): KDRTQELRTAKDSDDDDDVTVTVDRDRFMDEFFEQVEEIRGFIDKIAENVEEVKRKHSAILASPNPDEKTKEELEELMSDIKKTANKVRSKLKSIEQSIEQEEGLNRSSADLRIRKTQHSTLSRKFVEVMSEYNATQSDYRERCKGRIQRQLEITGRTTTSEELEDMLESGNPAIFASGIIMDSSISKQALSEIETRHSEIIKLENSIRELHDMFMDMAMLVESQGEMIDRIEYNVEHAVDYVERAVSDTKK
Sequence of SNARE complex containing syntaxin-1A(2-253), synaptobrevin-2(29-93), SNAP-25(11-82) and SNAP-25(141-203) (P63045 29-93, chain 2 of 4): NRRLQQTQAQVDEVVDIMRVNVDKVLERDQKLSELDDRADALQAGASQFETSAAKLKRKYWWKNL
Sequence of SNARE complex containing syntaxin-1A(2-253), synaptobrevin-2(29-93), SNAP-25(11-82) and SNAP-25(141-203) (P60880 11-82, chain 3 of 4): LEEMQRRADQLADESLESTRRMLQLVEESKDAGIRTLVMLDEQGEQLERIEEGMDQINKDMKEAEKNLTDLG
Sequence of SNARE complex containing syntaxin-1A(2-253), synaptobrevin-2(29-93), SNAP-25(11-82) and SNAP-25(141-203) (P60880 141-203, chain 4 of 4): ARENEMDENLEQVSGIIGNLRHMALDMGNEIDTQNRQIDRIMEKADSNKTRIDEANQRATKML

B1: complexin-1(26-83) (domain or fragment)
chain: KDPDAAKKEEERQEALRQAEEERKAKYAKMEAEREVMRQGIRDKYGIKKKEEREAEAQ
In the case of B1, the binding result was “binds”.

The record behind these values is publication PMC2686405 (The Journal of Cell Biology, 2009).
